Series [1] has as its target T1, Wild-type Connexin35 (Cx35) of Morone americana (Morone americana).
T1 construct: Connexin hemichannel (hexamer) expressed in HEK 293FT cells; In C. elegans it was expressed as GFP or mCherry fusion; also called Cx35WT; not shown: C-terminal fluorescent protein fusion (mEmerald or RFP670 in FETCH)
T1 chain: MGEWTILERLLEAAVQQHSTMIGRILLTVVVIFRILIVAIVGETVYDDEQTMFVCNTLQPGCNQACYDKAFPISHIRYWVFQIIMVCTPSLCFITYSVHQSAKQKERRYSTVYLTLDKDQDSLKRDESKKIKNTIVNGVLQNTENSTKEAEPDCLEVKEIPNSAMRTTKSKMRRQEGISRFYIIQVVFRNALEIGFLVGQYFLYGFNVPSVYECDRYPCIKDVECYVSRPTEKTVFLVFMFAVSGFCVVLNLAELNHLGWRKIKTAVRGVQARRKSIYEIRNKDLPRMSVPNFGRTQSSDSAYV
As to the kind of experiment: heterotypic FETCH. The protocol:
(§1) Complete FETCH methodology is outlined in Ransey et. al. 2021 (Ransey E, et al. (2021) BioRxiv). Briefly, replica multi-well plates with HEK 293FT cells were transfected with either of the two connexin proteins being evaluated for docking. Following a transfection incubation period, experimental counterparts were combined, replated, and further incubated for about 20 hr to about 24 hrs, allowing cells to make contacts and potentially generate connexosomes. Co-plated samples were trypsinized, fixed in suspension and analyzed via flow cytometry. Flow cytometry data was processed with two selection gates prior to their fluorescence evaluation. First, putative HEK cells were identified by evaluating sample forward vs. side scatter area. Next, single cells were identified as the putative cells that maintained a linear correlation of forward scatter height to forward scatter area. Finally, the dual fluorescence (mEmerald vs. RFP670) profiles of each sample was generated, and the FETCH score was defined as the proportion of dual-labeled fluorescent cells that develop in a co-plated sample.

The target of series [2] is T2, human connexin36 (Cx36) (human, UniProt Q9UKL4 1-321).
T2 construct: whole, on cells; Hemichannel expressed in HEK 293FT cells for FETCH; also called GJD2; not shown: C-terminal fluorescent protein fusion (mEmerald or RFP670 in FETCH)
T2 sequence (looked up): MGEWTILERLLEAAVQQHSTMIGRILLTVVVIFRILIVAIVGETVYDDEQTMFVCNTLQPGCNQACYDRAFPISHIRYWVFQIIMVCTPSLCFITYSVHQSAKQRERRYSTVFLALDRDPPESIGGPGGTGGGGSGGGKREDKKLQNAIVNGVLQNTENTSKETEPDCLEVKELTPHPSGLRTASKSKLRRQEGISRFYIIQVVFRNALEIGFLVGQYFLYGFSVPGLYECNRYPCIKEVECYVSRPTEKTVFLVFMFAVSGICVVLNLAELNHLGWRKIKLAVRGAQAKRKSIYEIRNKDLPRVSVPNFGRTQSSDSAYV
As to the kind of experiment: FETCH (flow cytometry, % dual-labelled HEK 293FT cells), heterotypic. Here is the method: as §1
A general note: A flow cytometer gives signals particle by particle.

Series [3] concerns the molecule itself. In words: homotypic FETCH. The protocol:
as §1

Series [4] concerns the target T2, human connexin36 (Cx36). In words: heterotypic FETCH. Here is the method: as §1
The target of series [5] is T3, human connexin43 (Cx43) (human, UniProt P17302 2-382).
T3 construct: whole, on cells; Hemichannel expressed in HEK 293FT cells for FETCH; also called GJA1; not shown: C-terminal fluorescent protein fusion (mEmerald or RFP670 in FETCH)
In words: heterotypic FETCH. The protocol: as §1

Series [6] deals with the molecule itself. As to the kind of experiment: FETCH (flow cytometry, % dual-labelled HEK 293FT cells), homotypic. Here is the method:
as §1

Series [7] deals with T4, Cx35K221E (designer connexin Cx35M1, Morone americana Cx35 with K221E) (Morone americana).
T4 construct: Rationally designed hemichannel; In C. elegans expressed as GFP or mCherry fusion; in mice from AAV9 as mApple or mEmerald fusion; not shown: C-terminal fluorescent protein fusion (mEmerald or RFP670 in FETCH)
T4 chain: T1 chain with K221E
As to the kind of experiment: FETCH (flow cytometry, % dual-labelled HEK 293FT cells), heterotypic. Here is the method: as §1

Series [8] addresses T3, human connexin43 (Cx43). Described as above. Here is the method: as §1

Changes are numbered by the printed parent chain. Names and notes keep the numbering of the source.

This note sets out measurements from US20250186620A1 (DUKE UNIVERSITY, published 2025).

T3 sequence (P17302 2-382): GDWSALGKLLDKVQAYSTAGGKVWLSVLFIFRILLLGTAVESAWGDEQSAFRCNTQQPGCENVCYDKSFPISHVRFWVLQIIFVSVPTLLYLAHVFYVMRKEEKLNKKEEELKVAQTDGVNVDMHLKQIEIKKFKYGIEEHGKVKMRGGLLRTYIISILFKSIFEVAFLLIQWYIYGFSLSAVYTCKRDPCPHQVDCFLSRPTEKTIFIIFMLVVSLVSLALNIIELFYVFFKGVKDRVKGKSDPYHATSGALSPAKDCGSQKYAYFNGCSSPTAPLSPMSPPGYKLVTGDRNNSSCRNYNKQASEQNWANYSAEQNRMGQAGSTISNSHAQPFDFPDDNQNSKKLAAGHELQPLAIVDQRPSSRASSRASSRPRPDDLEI

B1: Wild-type Connexin34.7 (Cx34.7) of Morone americana (other)
chain: MGEWTILERLLEAAVQQHSTMIGRILLTVVVIFRILIVAIVGETVYEDEQAMFICNTLQPGCNQACYDKAFPISHIRYWVFQIILVCTPSLCFITYSVHQSAKQKDRRYSFLYPIMERDYGGRDGARKLRNINGILVQHGGDGGGGKEEPDCLEVKEIPNAPRGLTHGKSSKVRRQEGISRFYIIQVVFRNALEIGFLAGQYFLYGFSVPGIFECDRYPCLKEVECYVSRPTEKTVFLVFMFAVSGICVVLNLAELNHLGWRKIKAAIRGVQARRKSICEIRKKDMAHLSQPPNLGRTQSSESAYV
notes: In C. elegans it was expressed as GFP or mCherry fusion; also called Cx34.7WT; not shown: C-terminal fluorescent protein fusion (mEmerald or RFP670 in FETCH)
With B1, the binding result in series [1] is recorded as “binds”. Besides, the FETCH score in series [2] worked out at 11.9%.

B2: Cx34.7E214K/E223K (designer connexin Cx34.7M1, Morone americana Cx34.7 with E214K and E223K) (other)
chain: B1 chain with E214K, E223K
notes: Rationally designed hemichannel; In C. elegans expressed as GFP or mCherry fusion; in mice from AAV9 as mEmerald or mApple fusion; not shown: C-terminal fluorescent protein fusion (mEmerald or RFP670 in FETCH)
With B2, the binding result in series [3], in series [4] and in series [5] was “no binding” throughout. Besides, the FETCH score in series [6] was 1.1%; in series [7] it was 35.7%; in series [2], 1%; in series [8], 0.9%.
